Reference: the supplement of paper PMC10567573

B1: TMEM175 (parent)
chain: SCTIIFLASIFQLAMWTTALLHQA
B2: ADD1 (parent)
chain: GEGTGSPPKWQIGEQEFEALMRML

Variants of: B1
Assay: protein stability index of a GFP-peptide fusion (GPS, HEK-293T) (PSI 1-6); higher = more stable
Conditions: c terminus: a fixed tail appended
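Further: lentivirally expressed fusions sorted by FACS into six bins by GFP to DsRed ratio, PSI derived from sequencing read proportions per bin multiplied by bin number.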

Protein stability index, by site and new letter:
F6: Q 2.14 | T 4.09 | K 2.52 | S 1.02 | R 2.56 | A 4.41 | C 3.39
C2: G 3.98 | Q 2.54 | L 2.87 | D 3.24 | W 2.26 | P 1.95 | N 4.36 | M 2.59

Variants of: B2
Assay: as above
Conditions: c terminus: a fixed tail appended

Protein stability index: each site, then its substitutions
E16: Y 1.71 | W 2.54
A19: F 2.67 | E 4.04 | T 3.25 | R 3.59 | Y 3.09 | N 4.03 | W 2.31 | I 2.39 | K 2.69 | L 2.85 | P 3.25 | Q 3.65 | G 3.22 | H 3.65 | S 2.94 | C 3.43 | V 2.97 | M 2.7 | D 4.11
R22: V 2.14 | D 3.61 | W 2.2 | G 3.09 | H 2.92 | N 3.62 | A 3.18 | P 3.75 | F 2.79 | Y 2.37 | T 3 | I 2.49 | E 3.39 | Q 3.3 | L 2.09 | M 2.55 | C 2.21 | S 3.44
M23: E 5.04 | F 2.52 | L 2.74 | I 2.16 | A 3.58 | D 5.08 | N 4.8 | Q 4.44 | Y 2.96 | C 3.74 | H 3.1 | S 4.68 | K 4.49 | T 3.38 | P 4.76 | V 3.43 | R 4.26 | G 4.56
M21: S 3.66 | I 2.99 | K 3.49 | R 3.18 | D 4.41 | P 4.2 | E 4.16 | Y 3.09 | N 3.71 | G 3.87 | Q 3.83 | V 3.11 | C 3.18 | F 3.47 | H 4.16 | W 2.83 | L 2.82 | T 3.13 | A 3.35
L20: F 3.07 | R 4.19 | S 5.12 | V 3.48 | E 4.77 | W 3.61 | H 4.97 | Y 3.97 | P 4.45 | T 3.63 | N 4.89 | G 4.67 | M 3.64 | I 2.46 | D 4.8 | K 4.4 | C 4.05 | Q 5.25 | A 4.61
L24: S 3.92 | I 3.52 | G 4.1 | F 3.42 | N 4.13 | V 3.06 | W 3.57 | P 4.38 | C 3.52 | M 3.89 | K 4.67 | R 4.34 | E 4.98 | D 4.89 | A 3.83 | Y 2.68 | H 4.32 | T 3.8 | Q 4.74
E18: N 2.47 | H 2.1 | V 2.3 | D 3.69 | Q 3.22 | C 2.82 | K 2.9 | Y 2.08 | I 2.37 | S 3.17 | G 2.69 | F 1.93 | W 1.85 | L 2.41 | A 2.76 | M 2.95 | T 3 | R 2.07 | P 3.39
F17: W 3.6 | K 3.88 | M 3.52 | R 3.83 | P 4.79 | A 3.92 | V 3.84 | Y 3.94 | I 3.15 | Q 4.76 | G 4.19 | D 4.82 | H 4.32 | C 3.33 | S 4.28 | E 4.52 | T 3.75 | N 3.55 | L 3.37
